The record followed here is paper PMC5454954, “BDNF Binds Its Pro-Peptide with High Affinity and the Common Val66Met Polymorphism Attenuates the Interaction” (International Journal of Molecular Sciences, 2017).

Test [1] addresses BDNF pro-peptide, Val66 (wild type; Val-pro-peptide) (UniProt P23560). Description: Surface plasmon resonance (BIAcore 2000). To be noted: pH 7.4; 20 °C; 0.15 M NaCl; HBS-EP: 0.01 M HEPES (pH 7.4). For Figure 2c the same buffer was adjusted to pH 6.5 or 7.0 with HCl.
The target of test [2] is BDNF pro-peptide, Met66 (Val66Met polymorphism; Met-pro-peptide) V66M (UniProt P23560). Description: Surface plasmon resonance (BIAcore 2000). Particulars: pH 7.4; 20 °C; 0.15 M NaCl; HBS-EP: 0.01 M HEPES (pH 7.4). For Figure 2c the same buffer was adjusted to pH 6.5 or 7.0 with HCl.
Test [3] concerns the target T1, recombinant BDNF pro-peptide with the Met substitution at position 66 (Val66Met) (human, UniProt P23560 19-128, Val66Met).
T1 construct: BDNF pro-peptide, residues 19-128 of human precursor BDNF, with the common polymorphism Val66Met; Vector pET-19b; also called Met-BDNF pro-peptide; Met-pro-peptide; source: E. coli BL21 (DE3) pLysS, purified by liquid chromatography
T1 sequence (looked up): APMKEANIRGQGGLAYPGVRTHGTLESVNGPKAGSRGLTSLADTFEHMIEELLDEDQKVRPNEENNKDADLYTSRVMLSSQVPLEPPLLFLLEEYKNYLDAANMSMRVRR
Description: SPR; BIAcore 2000; BDNF pro-peptide (Val or Met) amine-coupled to a CM5 chip at about 2000 RU; neurotrophins and other proteins flowed over; 20 °C, 20 µL/min; HBS-EP (0.01 M HEPES pH 7.4, 0.15 M NaCl, 3 mM EDTA, 0.005% Surfactant P20). Particulars: both partners purified.

The target in test [4] is T2, recombinant wild-type BDNF pro-peptide (Val at position 66) (human, UniProt P23560 19-128).
T2 construct: BDNF pro-peptide, residues 19-128 of human precursor BDNF; Vector pET-19b; also called Val-BDNF pro-peptide; Val-pro-peptide; source: E. coli BL21 (DE3) pLysS, purified by liquid chromatography
T2 sequence (looked up): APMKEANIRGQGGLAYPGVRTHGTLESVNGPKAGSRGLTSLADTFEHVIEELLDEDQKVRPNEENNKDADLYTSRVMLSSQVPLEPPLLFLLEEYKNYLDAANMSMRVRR
The test is described as above. To be noted: both partners purified.

Test [5] deals with T3, recombinant wild-type BDNF pro-peptide (Val at position 66) (human, UniProt P23560 19-128).
T3 chain: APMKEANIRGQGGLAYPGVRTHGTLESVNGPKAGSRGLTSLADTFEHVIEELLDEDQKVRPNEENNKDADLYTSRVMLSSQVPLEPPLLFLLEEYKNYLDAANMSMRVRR
The experiment in a line: SPR.

In test [1], “Brain-derived neurotrophic factor (mature BDNF)” yielded a ka of 378000 M⁻¹ s⁻¹ and a kd of 0.0159 s⁻¹. In test [2], this molecule returned a ka of 36300 M⁻¹ s⁻¹ and a kd of 0.000444 s⁻¹.

B1: brain-derived neurotrophic factor (BDNF), recombinant human (ligand)
chain: HSDPARRGELSVCDSISEWVTAADKKTAVDMSGGTVTVLEKVPVSKGQLKQYFYETKCNPMGYTKEGCRGIDKRHWNSQCRTTQSYVRALTMDSKKRIGWRFIRIDTSCVCTLTIKRGR
modifications: mature BDNF; non-covalent homodimer, three intrachain disulfides per chain; a recombinant N-terminal Met is not stated
For the molecule B1, in test [3], the Kd is 12.2 nM, the koff is 0.000444 s⁻¹ and the kon worked out at 36300 M⁻¹ s⁻¹. In test [4], the Kd came out at 42.1 nM, the koff came to 0.0159 s⁻¹ and the kon amounted to 378000 M⁻¹ s⁻¹.

B2: recombinant human neurotrophin-4 (NT-4) (ligand)
chain: GVSETAPASRRGELAVCDAVSGWVTDRRTAVDLRGREVEVLGEVPAAGGSPLRQYFFETRCKADNAEEGGPGAGGGGCRGVDRRHWVSECKAKQSYVRALTADAQGRVGWRWIRIDTACVCTLLSRTGRA
As to B2, in test [5], the Kd amounted to 230 nM.
